Measured values from patent US20240410900A1.

Assays:
[1] = target: non-targeted IgG-IL2 (interleukin-2 fused to the C-terminus of a heavy chain of a germline antibody, which is not binding to a target); experiment: bridging ELISA, IgG-IL2-Bi and -Dig, binder 0.5 ng/mL assay / 10 ng/mL matrix
[2] = target: non-targeted IgG-IL2 (interleukin-2 fused to the C-terminus of a heavy chain of a germline antibody, which is not binding to a target); experiment: bridging ELISA, IgG-IL2-Bi and -Dig, binder 3.9 ng/mL assay / 78 ng/mL matrix
[3] = target: non-targeted IgG-IL2 (interleukin-2 fused to the C-terminus of a heavy chain of a germline antibody, which is not binding to a target); experiment: bridging ELISA, drug-Bi and drug-Dig, human pooled serum, binder 0.49 ng/mL assay / 10 ng/mL matrix
[4] = target: targeted IgG-IL2 (interleukin-2 fused to the C-terminus of a heavy chain of an antibody specifically binding to a therapeutic target); experiment: as above
[5] = target: TCB (T-cell bispecific format) drug antibody; experiment: as above
[6] = target: non-targeted IgG-IL2 (interleukin-2 fused to the C-terminus of a heavy chain of a germline antibody, which is not binding to a target); experiment: bridging ELISA, drug-Bi and drug-Dig, human pooled serum, binder 63 ng/mL assay / 1250 ng/mL matrix
[7] = target: targeted IgG-IL2 (interleukin-2 fused to the C-terminus of a heavy chain of an antibody specifically binding to a therapeutic target); experiment: as above
[8] = target: TCB (T-cell bispecific format) drug antibody; experiment: as above
[9] = target: non-targeted IgG-IL2 (interleukin-2 fused to the C-terminus of a heavy chain of a germline antibody, which is not binding to a target); experiment: bridging ELISA, drug-Bi and drug-Dig, human pooled serum, binder 0.00 ng/mL (blank)
[10] = target: targeted IgG-IL2 (interleukin-2 fused to the C-terminus of a heavy chain of an antibody specifically binding to a therapeutic target); experiment: as above
[11] = target: TCB (T-cell bispecific format) drug antibody; experiment: as above
[12] = target: non-targeted IgG-IL2 (interleukin-2 fused to the C-terminus of a heavy chain of a germline antibody, which is not binding to a target); experiment: bridging ELISA, IgG-IL2-Bi and -Dig, binder 0.00 ng/mL (blank)
[13] = target: non-targeted IgG-IL2 (interleukin-2 fused to the C-terminus of a heavy chain of a germline antibody, which is not binding to a target); experiment: bridging ELISA, IgG-IL2-Bi and -Dig, binder 250 ng/mL assay / 5000 ng/mL matrix
[14] = target: non-targeted IgG-IL2 (interleukin-2 fused to the C-terminus of a heavy chain of a germline antibody, which is not binding to a target); experiment: bridging ELISA, IgG-IL2-Bi and -Dig, binder 31 ng/mL assay / 625 ng/mL matrix
[15] = target: non-targeted IgG-IL2 (interleukin-2 fused to the C-terminus of a heavy chain of a germline antibody, which is not binding to a target); experiment: bridging ELISA, drug-Bi and drug-Dig, human pooled serum, binder 0.06 ng/mL assay / 1.2 ng/mL matrix
[16] = target: targeted IgG-IL2 (interleukin-2 fused to the C-terminus of a heavy chain of an antibody specifically binding to a therapeutic target); experiment: as above
[17] = target: TCB (T-cell bispecific format) drug antibody; experiment: as above
[18] = target: non-targeted IgG-IL2 (interleukin-2 fused to the C-terminus of a heavy chain of a germline antibody, which is not binding to a target); experiment: bridging ELISA, IgG-IL2-Bi and -Dig, binder 16 ng/mL assay / 313 ng/mL matrix
[19] = target: drug antibody (capture and tracer of the bridging immunoassay of FIGS. 2, 7 and 8; not named); experiment: bridging immunoassay, drug antibody as capture and tracer, binder at 80 ng/ml
[20] = target: non-targeted IgG-IL2 (interleukin-2 fused to the C-terminus of a heavy chain of a germline antibody, which is not binding to a target); experiment: bridging ELISA, IgG-IL2-Bi and -Dig, binder 500 ng/mL assay / 10000 ng/mL matrix
[21] = target: non-targeted IgG-IL2 (interleukin-2 fused to the C-terminus of a heavy chain of a germline antibody, which is not binding to a target); experiment: bridging ELISA, drug-Bi and drug-Dig, human pooled serum, binder 0.24 ng/mL assay / 4.9 ng/mL matrix
[22] = target: targeted IgG-IL2 (interleukin-2 fused to the C-terminus of a heavy chain of an antibody specifically binding to a therapeutic target); experiment: as above
[23] = target: TCB (T-cell bispecific format) drug antibody; experiment: as above
[24] = target: non-targeted IgG-IL2 (interleukin-2 fused to the C-terminus of a heavy chain of a germline antibody, which is not binding to a target); experiment: bridging ELISA, drug-Bi and drug-Dig, human pooled serum, binder 16 ng/mL assay / 312.5 ng/mL matrix
[25] = target: targeted IgG-IL2 (interleukin-2 fused to the C-terminus of a heavy chain of an antibody specifically binding to a therapeutic target); experiment: as above
[26] = target: TCB (T-cell bispecific format) drug antibody; experiment: as above

B1: multivalent anti-PG antibody derived from clone 1.7.24 (mixed Pool 2, 3, 4) (antibody, V domains shown)
VH: EVKLLESGGGLVQPGGSLKLSCAASGFDFSRYWMNWVRQAPGKGLEWIGEITPDSSTINYTPSLKDKFIISRDNAKNTLYLQMIKVRSEDTALYYCVRPYDYGAWFASWGQGTLVTVSA
VL: QAVVTQESALTTSPGETVTLTCRSSTGAVTTSNYANWVQEKPDHLFTGLIGGTNKRAPGVPARFSGSLIGDKAALTITGAQTEDEAIYFCALWYSNHWVFGGGTKLTVL
modifications: lysine amines derivatised with SATP or MHS and cross-linked (sites not given)
signal [AU] [1]: 0.0825 AU
signal [AU] [2]: 0.286 AU
signal [AU] [3]: 0.045 AU
signal [AU] [4]: 0.0675 AU
signal [AU] [5]: 0.0835 AU
signal [AU] [6]: 0.77 AU
signal [AU] [7]: 2.63 AU
signal [AU] [8]: 2.86 AU
signal [AU] [9]: 0.041 AU
signal [AU] [10]: 0.0395 AU
signal [AU] [11]: 0.0425 AU
signal [AU] [12]: 0.053 AU
signal [AU] [13]: 3.04 AU
signal [AU] [14]: 1.89 AU
signal [AU] [15]: 0.042 AU
signal [AU] [16]: 0.042 AU
signal [AU] [17]: 0.049 AU
signal [AU] [18]: 0.996 AU
signal-to-noise ratio (S/N) [19]: 4.5
signal [AU] [20]: 3.09 AU
signal [AU] [21]: 0.045 AU
signal [AU] [22]: 0.055 AU
signal [AU] [23]: 0.0645 AU
signal [AU] [24]: 0.23 AU
signal [AU] [25]: 0.894 AU
signal [AU] [26]: 1.19 AU
